The text below walks through data of paper PMC3143072, “DNA binding activities of the Herves transposase from the mosquito Anopheles gambiae”.

In series [1] the target is T1, Herves transposase (Anopheles gambiae, UniProt Q5QIT5 1-603).
T1 sequence: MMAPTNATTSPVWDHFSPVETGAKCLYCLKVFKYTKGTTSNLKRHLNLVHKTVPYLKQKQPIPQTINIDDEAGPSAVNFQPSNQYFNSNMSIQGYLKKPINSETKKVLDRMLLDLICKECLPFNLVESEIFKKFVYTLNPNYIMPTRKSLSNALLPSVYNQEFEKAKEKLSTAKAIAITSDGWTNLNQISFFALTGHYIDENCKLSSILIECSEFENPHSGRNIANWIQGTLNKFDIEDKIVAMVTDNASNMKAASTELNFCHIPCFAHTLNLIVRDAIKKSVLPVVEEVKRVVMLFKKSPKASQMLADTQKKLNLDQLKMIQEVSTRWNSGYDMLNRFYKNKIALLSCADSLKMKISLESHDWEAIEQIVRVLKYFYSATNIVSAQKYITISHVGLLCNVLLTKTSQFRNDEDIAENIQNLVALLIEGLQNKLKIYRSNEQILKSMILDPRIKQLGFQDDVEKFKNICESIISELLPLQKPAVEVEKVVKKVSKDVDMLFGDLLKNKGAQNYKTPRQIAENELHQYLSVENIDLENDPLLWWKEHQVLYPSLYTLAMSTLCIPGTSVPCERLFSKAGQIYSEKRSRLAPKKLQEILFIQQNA
The experiment in a line: EMSA; two complexes; EMSA: 16 mM Tris pH 8.0, 150 mM NaCl, 1 mM DTT, 0.25% Triton X, 0.2 ug BSA, 0.4 ug T3 ss oligo, 0.5 ug poly(dI-dC), 4 C; 100 nM DNA, 850 nM transposase; same binding conditions for DNase I. To be noted: protein: recombinant; tags: His tag (pBAD myc/HisA vector); label: 32P as probe. (In general: In EMSA bound probe runs differently from free probe, usually more slowly.)

For series [2], the target named is T1, Herves transposase. Put plainly: EMSA; one complex; EMSA: 16 mM Tris pH 8.0, 150 mM NaCl, 1 mM DTT, 0.25% Triton X, 0.2 ug BSA, 0.4 ug T3 ss oligo, 0.5 ug poly(dI-dC), 4 C; 100 nM DNA, 850 nM transposase; same binding conditions for DNase I. To be noted: protein: recombinant; tags: His tag (pBAD myc/HisA vector); label: 32P as probe.
The target of series [3] is T1, Herves transposase. The experiment in a line: competition; vs Herves-L 1-100 probe, partial compared with bp 1-100; 200-fold; EMSA: 16 mM Tris pH 8.0, 150 mM NaCl, 1 mM DTT, 0.25% Triton X, 0.2 ug BSA, 0.4 ug T3 ss oligo, 0.5 ug poly(dI-dC), 4 C; 100 nM DNA, 850 nM transposase; same binding conditions for DNase I. To be noted: protein: recombinant; tags: His tag (pBAD myc/HisA vector); label: 32P as probe.

The target of series [4] is T1, Herves transposase. The experiment in a line: EMSA; two complexes; competed by self; EMSA: 16 mM Tris pH 8.0, 150 mM NaCl, 1 mM DTT, 0.25% Triton X, 0.2 ug BSA, 0.4 ug T3 ss oligo, 0.5 ug poly(dI-dC), 4 C; 100 nM DNA, 850 nM transposase; same binding conditions for DNase I. To be noted: protein: recombinant; tags: His tag (pBAD myc/HisA vector); label: 32P.
Series [5] addresses T1, Herves transposase. Put plainly: competition; vs Herves-L 1-100 probe; 200-fold; EMSA: 16 mM Tris pH 8.0, 150 mM NaCl, 1 mM DTT, 0.25% Triton X, 0.2 ug BSA, 0.4 ug T3 ss oligo, 0.5 ug poly(dI-dC), 4 C; 100 nM DNA, 850 nM transposase; same binding conditions for DNase I. The settings on record: protein: recombinant; tags: His tag (pBAD myc/HisA vector).
Series [6] has as its target T1, Herves transposase. The experiment in a line: EMSA; three complexes; competed by unlabeled bp 1-100; EMSA: 16 mM Tris pH 8.0, 150 mM NaCl, 1 mM DTT, 0.25% Triton X, 0.2 ug BSA, 0.4 ug T3 ss oligo, 0.5 ug poly(dI-dC), 4 C; 100 nM DNA, 850 nM transposase; same binding conditions for DNase I. To be noted: protein: recombinant; tags: His tag (pBAD myc/HisA vector); label: 32P.

The target of series [7] is T1, Herves transposase. Put plainly: EMSA; EMSA: 16 mM Tris pH 8.0, 150 mM NaCl, 1 mM DTT, 0.25% Triton X, 0.2 ug BSA, 0.4 ug T3 ss oligo, 0.5 ug poly(dI-dC), 4 C; 100 nM DNA, 850 nM transposase; same binding conditions for DNase I. To be noted: protein: recombinant; tags: His tag (pBAD myc/HisA vector); label: 32P as probe.

B1: (CGATTCAT)4 (dsDNA)
DNA 1: CGATTCATCGATTCATCGATTCATCGATTCAT
DNA 2: ATGAATCGATGAATCGATGAATCGATGAATCG
Consider B1, for which, in series [1], the binding result is reported as “binds”.

B2: Herves-R bp 15-45 (dsDNA)
DNA 1: TCGATTCATTACCATGAACGTGAATTTACCG
DNA 2: CGGTAAATTCACGTTCATGGTAATGAATCGA
As for B2, the binding result in series [2] is listed as “binds”.

B3: Herves-L bp 28-60 (dsDNA)
DNA 1: GTACGATTCATTCAATTCATCCTAAAGAACGAA
DNA 2: TTCGTTCTTTAGGATGAATTGAATGAATCGTAC
For the molecule B3, in series [3], the binding result is on record as “binds”.

B4: Herves-R bp 1-100 (dsDNA)
DNA 1: TTGACGTGAACGATTGAATCGCGATTCACGCTCAGTTCATGTTAATGAAAGAACCGGTAAATTCACGTTCATGGTAATGAATCGAATTGCCCAACCCTA
DNA 2: TAGGGTTGGGCAATTCGATTCATTACCATGAACGTGAATTTACCGGTTCTTTCATTAACATGAACTGAGCGTGAATCGCGATTCAATCGTTCACGTCAA
Regarding B4, the binding result in series [4] was “binds”.

B5: Herves-R bp 61-90 (dsDNA)
DNA 1: TGAACTGAGCGTGAATCGCGATTCAATCGT
DNA 2: ACGATTGAATCGCGATTCACGCTCAGTTCA
Consider B5, for which the binding result in series [2] is given as “binds”.

B6: Herves-L bp 1-30 (dsDNA)
DNA 1: TAGAGTTGTGCCTCAAGAACCAGAACTGTA
DNA 2: TACAGTTCTGGTTCTTGAGGCACAACTCTA
As for B6, in series [5], the binding result was “no binding”.

B7: Herves-L bp 1-100 (dsDNA)
DNA 1: TAGAGTTGTGCCTCAAGAACCAGAACTGTACGATTCATTCAATTCATCCTAAAGAACGAATGACCTACGTTCATCTAATCAACGTTCATCGATTCTTTAT
DNA 2: ATAAAGAATCGATGAACGTTGATTAGATGAACGTAGGTCATTCGTTCTTTAGGATGAATTGAATGAATCGTACAGTTCTGGTTCTTGAGGCACAACTCTA
For the molecule B7, the binding result in series [6] is recorded as “binds”.

B8: Herves-R bp 46-75 (dsDNA)
DNA 1: GTTCTTTCATTAACATGAACTGAGCGTGAA
DNA 2: TTCACGCTCAGTTCATGTTAATGAAAGAAC
Consider B8, for which the binding result in series [7] is “no binding”.

B9: Herves-R bp 1-30 (dsDNA)
DNA 1: TAGGGTTGGGCAATTCGATTCATTACCATG
DNA 2: CATGGTAATGAATCGAATTGCCCAACCCTA
With B9, the binding result in series [1] is “binds”.

B10: Herves-L bp 12-48 (dsDNA)
DNA 1: CTCAAGAACCAGAACTGTACGATTCATTCAATTCATC
DNA 2: GATGAATTGAATGAATCGTACAGTTCTGGTTCTTGAG
As to B10, the binding result in series [1] is reported as “binds”.
